# According to the nanobody polyreactivity screen of Harvey et al. (2022):
# Experiment: yeast display, Sf9 membrane polyspecificity reagent, FACS + sequencing; frameworks hold sequencing errors
# Outline: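 A synthetic nanobody library was expressed on Saccharomyces cerevisiae BJ5465 by galactose induction for 36–48 hours. The library was stained for 1 hour at 4 °C with 10% biotinylated, detergent-solubilized Sf9 membrane reagent and enriched with streptavidin microbeads before FACS. Low and high (top ~1%) gates were set on anti-HA fluorescence for expression and streptavidin fluorescence for reagent binding, and each polyreactivity label reflects the gate of origin.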
row,Sequence,polyreactivity (PSR sort gate)
1,QVQLVESGGGLVQAGGSLRLSCAASGRTFSLYDMGWYRQAPGKERELVAAISYSGTRTYYADSVKGRFTISRDNAKNTVYLQMNCLKPEDTAVYYCARVYTVGTGRSWRLDYWGQGTQVTVSS,high polyreactivity
2,QVQLVESGGGLVQAGGSLRLSCAASGRTFSPNAMGWYRQAPGKEREFVAAITWSGGGTFYADSVKGRFTISRDNAKNTVYLQMNSLKPEDTAVYYCAARLDTYQTHSVITPAALYYWGQGTQVTVSS,low polyreactivity
3,QVQLVESGGGLVQAGGSLRLSCAASGRTFSPYAMGWYRQAPGKERELVAAIYNGGSTYYADSVKGRFTISRDNAKNTVYLQMNSLKPEDTAVYYCAAGRKSLYRIYSEYVEFDYWGQGTQVTVSS,low polyreactivity
4,QVQLVESGGGLVQAGGSLRLSCAASGRTFSQYAMGWYRQAPGKERELVAPISWSGGSTYYADSVKGRFTISRDNAKNTVDLQMNSLKPEDTAVFYCAAVGKGSSRSSYPVLYDYWGQGTQVTVSS,low polyreactivity
5,QVQLVESGGGLVQAGGSLRLSCAASGRTFSRNAMGWYRHAPGKEWELVAAISRTGGSTYYADSVKGRFTISRDNAKKTVYLQMNSLKPEDTAVYYCAAGTWGWYAYGYWGLGTQVTVSS,high polyreactivity
6,QVQLVESGGGLVQAGGSLRLSCAASGRTFSRNAMGWYRQAPGKERELVAAISDGGGSTYYADSVKGRFTISRDNAKNPVYLQMNILKPEDTAVYYCAARVLDWRGDIHDSEYWGHGTQVTVSS,low polyreactivity
7,QVQLVESGGGLVQAGGSLRLSCAASGRTFSRNAMGWYRQAPGKERELVAAISQRGVSTYYADSVKGRFTISRDNAKNTVYLQMNSLKPEDTAVYYCNTRGTYRYDYWGQGTQVTVSS,low polyreactivity
8,QVQLVESGGGLVQAGGSLRLSCAASGRTFSRNAMGWYRQAPGKERELVAAISQSGGRTYYADSVKGRFTISRDNAKNTVYLQMNSLKPEDTAVYYCAAAGTRKALTEYDYWGQGTQVTLSS,high polyreactivity
9,QVQLVESGGGLVQAGGSLRLSCAASGRTFSRYAMGWYRPAPGKERELVAAISSSGGSTYYADSVKGRFTISRDHAKNTVYLQMNSLKPEDTAVYYCAKYFIRDNRYDYWGQGTQVTVSS,high polyreactivity
10,QVQLVESGGGLVQAGGSLRLSCAASGRTFSRYAMGWYRQAPGKERELVASIRSGGSTNYADSVKGRFTISRDNAKNTVYIQMNSLKPEDTAVYYCANVGRYWNPVYNSFYNFDYWGQGTQVTVSS,high polyreactivity
11,QVQLVESGGGLVQAGGSLRLSCAASGRTFSRYVMGWYRQAPGKERELVAAISRTGGRTYYADSVKGRFTISRDNAKNTVYLQMNSLKPEDTAVYYCNAGTVLISTYDYWGQGTQVSVSS,high polyreactivity
12,QVQLVESGGGLVQAGGSLRLSCAASGRTFSRYVMGWYRQAPGKERELVAGISQSGARTTYADSVKGRFTISRDNAKNTVYLQMNSLKPEDTAVYYCAAVGYGIRSYYSYDYWGQGTQVTVSS,high polyreactivity
13,QVQLVESGGGLVQAGGSLRLSCAASGRTFSSYAMGWYRPAPGKERELVAAITKRAGNTYYADSVKGRFTISRDNAKNTVYLQMNSLKPEDTAVYYCAAGWERFRNYNYWGQGTQVTVSS,high polyreactivity
14,QVQLVESGGGLVQAGGSLRLSCAASGRTFSSYAMGWYRQAPGKEREFVAAINKNGGSTFYADSVKGRFTISRDNAKNTVYFQMNSLKPEDTAVYYCNADTDWWNPYNYWGQGTQVTVST,low polyreactivity
15,QVQLVESGGGLVQAGGSLRLSCAASGRTFSSYAMGWYRQAPGKERELVAAINSGGSTNYADSVKGRFTISRDNAKNTVYLQMNSLKPEDTAVYYCNAVTFWGLGYDYWGQGTQVTVSS,low polyreactivity
16,QVQLVESGGGLVQAGGSLRLSCAASGRTFSSYAMGWYRQAPGKERELVAAISWSGGRTYYADSVKGRFTISRDNAKNTVYLQMNSLKPEDTAVYYCAAEGDKRKYWYLYDYWGQGTQVTVSS,high polyreactivity
17,QVQLVESGGGLVQAGGSLRLSCAASGRTFSSYAMGWYRQEPGKERELVARINSDGGRTYYADSVKGRFTISRDNAKNTVYLQMNSLKPEDTAVYYCAKRVVRGKVDYWGQGTQVTVSS,low polyreactivity
18,QVQLVESGGGLVQAGGSLRLSCAASGRTFSTNDMGWYRQAPGKERELVAAIDFDSDSTYYADSVKGRFTISRDNAKNTVYLQMNSMKPEDTAVYYCAAQYFSYGESYEYWGQGTQVTVSS,low polyreactivity
19,QVQLVESGGGLVQAGGSLRLSCAASGRTFSTYAMGWYRQAPGKERELVATIRGSGSSTYYADSVKGRFTISRDNAKNTVYLQMNSLKPEDTAVYYCAKDNNRWRYLRYGSWGQGTQVTVSS,high polyreactivity
20,QVQLVESGGGLVQAGGSLRLSCAASGRTFSTYAMGWYRQSPGKERELVAAITWRGASTYYADSVKGRFTISRDYAKNTVYLQMNSLKPEDTAVYYCATDAPDRTDSDSGFDAGYDYWGQGTQVTLSS,low polyreactivity

row,Sequence,polyreactivity (PSR sort gate)
1,QVQLVESGGGLVQAGGSLRLSCAASGRTFSVNAMGWYRQAPGKERELVAAISSGGGTNYADSVKGRFTISRDNAKNNVYLQMNSLKPEDTAVYYCAARTFGYPSHRKEMEYWGQGTQVTVSS,low polyreactivity
2,QVQLVESGGGLVQAGGSLRLSCAASGRTFSVNAMGWYRQAPGKERELVAAISWDGGSTYYADSVKGRFTISRDNAKNTDYLQMNSLKPEDTAVYYCNKDLYYAYDYWRQGTQVTVSS,low polyreactivity
3,QVQLVESGGGLVQAGGSLRLSCAASGRTFSVNAMGWYRQAPGKERELVAAISWSTGSTYYADSVKGRFTISRDNAKNTVYLQMNSLKPEDTAVYYCAKLYEYRRSRYRTYGYWGQGTQVTVSS,high polyreactivity
4,QVQLVESGGGLVQAGGSLRLSCAASGRTFSVYAMGWYRQAPGKERELVAGITSGGSTNYADSVKGRFTISRDNAKNTVYLQMNSLKPEDTAVYYCAAEDDSSTPEFDYWGQGTQVTVSS,low polyreactivity
5,QVQLVESGGGLVQAGGSLRLSCAASGRTFSVYDMGWYRQAPGKERELVARIRSGGSTYYADSVKGRFTISRDNAKNTVYLQMNSLKPEDTAVYYCAADGFASRWYAYYYWGQGTQVTVSS,high polyreactivity
6,QVQLVESGGGLVQAGGSLRLSCAASGRTFSYNAMGWYRQAPGKERELVAAITWRGSTTYYADSVKGRFTISRDNAKNTVYLQMNSLKPEDTAVYYCAADTGQPYILDYWGQGTQVTVSS,low polyreactivity
7,QVQLVESGGGLVQAGGSLRLSCAASGRTFSYYAIGWYRQAPGTERELVAGISYSGGTTYYADSVKGRFTISRDNAKNTVYLQMNSLKPEDTAVYYCATRYWTFSGYDYWGQGTQVTVSS,low polyreactivity
8,QVQLVESGGGLVQAGGSLRLSCAASGRTFSYYAMGWYREAPGNERELVAAITTGGRTYYADSVKGRFTISRDNAKNTVYLQMNSLKPEDTAVYYCAADYTVSYPYYEYYYWGQGTQVTVSS,high polyreactivity
9,QVQLVESGGGLVQAGGSLRLSCAASGRTFSYYAMGWYRQAPGKERELVAAISSGGSTYYADSVKGRFTISRDNAKNTVYLQMNSLKTEVSEVYYCAKSYYRYQVSSRMYYRGQGTQVTVSS,high polyreactivity
10,QVQLVESGGGLVQAGGSLRLSCAASGRTFSYYAMGWYRQAPGKERELVAAIYRAGRTNYADSVKGRFTISRDNAKNNVYLQMHSLKPEDTAVYYCAADLAYGRPFVSYRTRACGQGTQVTVSS,high polyreactivity
11,QVQLVESGGGLVQAGGSLRLSCAASGRTFSYYAMGWYRQAPGKERELVATISWSGSTYYADSVKGRFTLSRDNAKNTVYLQMNSLKPEDTAVYYCAARYRYAGWYSVWYDYWGQGTQVSVSS,high polyreactivity
12,QVQLVESGGGLVQAGGSLRLSCAASGRTFSYYAMGWYRQAPGKERELVAVISVSGGSTYYADSVKGRFTISRDNAKNTVYLQMNSLKPEDTAVYYCNVDLYYGYDYWGQGTQVTVSS,low polyreactivity
13,QVQLVESGGGLVQAGGSLRLSCAASGRTFSYYTMGWDRQAPGKERELVASITSDSSTNYADSVKGRFTISRDNAKNTVYLQMNSLKPEHTAVYYCAADHWIAPRRDYWGQGTQVTVSS,low polyreactivity
14,QVQLVESGGGLVQAGGSLRLSCAASGRTFTEYAMGWYSQAHGKERELVARISIGDSTYYADSVKGRFTISRDNAKNTVYLQMNSLKPEDTAVFYCNAEYSRSYRYDEGYWGQGTQVTVSS,low polyreactivity
15,QVQLVESGGGLVQAGGSLRLSCAASGRTFTFKAMGWYRQAPGKERELVAAMTSTGSTSYADSVKGRFTISRDNAKNTVYLQMNSLKPEDTAVYYCAKGYVIPYVHHVRPYGGEYLGQGTQVTVSS,low polyreactivity
16,QVQLVESGGGLVQAGGSLRLSCAASGRTFTFYTMGCYRQSPGKERELVAAITRSGGGTYYADSVKGRFTISRDNAKNTVYLQMNSLKPEDTAVYYCAAYNRNAFHWGQGTQVTVSS,high polyreactivity
17,QVQLVESGGGLVQAGGSLRLSCAASGRTFTGYAMGWYRQAPGKERELVAAISASGGSTYYADSVKGRFTISRDIAKNTVYFQMNSLKPEDTAVYYCAAETWYSVLWEEGYDYWGQGTQVTVSS,low polyreactivity
18,QVQLVESGGGLVQAGGSLRLSCAASGRTFTGYAMGWYRQAPGKERELVASISGSGGRTNYADSVKGRFTISRDNAKNTVYLQMNSLKPEDTAVYYCNARAHSYRKSSYIYLPYSYDYWGQGTQVTVSS,high polyreactivity
19,QVQLVESGGGLVQAGGSLRLSCAASGRTFTGYAMGWYRQAPGKERELVASISSRGGSTYYADSVKGRFTISRDNAKNTVYLQMNSLKPEDTAVYYCAADSVRHTYSWWYAVDYWGQGTQVTVSS,high polyreactivity
20,QVQLVESGGGLVQAGGSLRLSCAASGRTFTHNAMGWYRQAPGKERELVAGITSGGSTNYADSVKGRFTISRDNAKNTVYLQMNSLKPEDTAVYYCNKVFFWSRYKGYYYWGQGTQVTVSS,high polyreactivity
